We go through four molecules from patent publication US20120288494A1 (published 2012).

A word on the Kd: it is the free concentration of one partner at which half of the binding sites on the other are occupied at equilibrium, for simple one-to-one binding. A lower Kd goes with higher affinity. A word on the IC50: it is the midpoint of a concentration-inhibition curve. A high value points to weaker potency. In general, koff refers to the rate constant with which the complex falls apart. A higher koff goes with fast dissociation.

Where a chain is given by its changes, count along the chain named. Read-outs that look alike come from different tables or passages of the source.

To fix the notation:
B1: Y61 (antibody, V domains shown)
VH: QVQLVQSGGGVVQPGRSLRLSCAASGFTFSSYGMHWVRQAPGKGLEWVAFIRYDGSNKYYADSVKGRFTISRDNSKNTLYLQMKSLRAEDTAVYYCKTHGSHDNWGQGTMVTVSS
VL: SYVLTQPPSVSGTPGQRVTISCSGGRSNIGSNTVKWYQQLPGTAPKLLIYGNDQRPSGVPDRFSGSKSGTSASLAITGVQAEDEADYYCQSYDRGTHPALLFGTGTKVTVLG
B2: 103-14 (antibody, V domains shown)
VH: B1 VH
VL: SYVLTQPPSVSGTPGQRVTISCSGGRSNIGSNTVKWYQQLPGTAPKLLIYGNDQRPSGVPDRFSGSKSGTSASLAITGVQAEDEADYYCQSYDRGFTGSMVFGTGTKVTVL
B3: J695 (antibody, V domains shown)
VH: B1 VH with Q6E, K84N
VL: B1 VL with S1Q, Y2S, T13A, G25S, G51Y, V79L, G95Y
B4: IL-12 (ligand)
chain 1: IWELKKDVYVVELDWYPDAPGEMVVLTCDTPEEDGITWTLDQSSEVLGSGKTLTIQVKEFGDAGQYTCHKGGEVLSHSLLLLHKKEDGIWSTDILKDQKEPKNKTFLRCEAKNYSGRFTCWWLTTISTDLTFSVKSSRGSSDPQGVTCGAATLSAERVRGDNKEYEYSVECQEDSACPAAEESLPIEVMVDAVHKLKYENYTSSFFIRDIIKPDPPKNLQLKPLKNSRQVEVSWEYPDTWSTPHSYFSLTFCVQVQGKSKREKKDRVFTDKTSATVICRKNASISVRAQDRYYSSSWSEWASVPCS
chain 2: RNLPVATPDPGMFPCLHHSQNLLRAVSNMLQKARQTLEFYPCTSEEIDHEDITKDKTSTVEACLPLELTKNESCLNSRETSFITNGSCLASRKTSFMMALCLSSIYEDLKMYQVEFKTMNAKLLMDPKRQIFLDQNMLAVIDELMQALNFNSETVPQKSSLEEPDFYKTKIKLCILLHAFRIRAVTIDRVMSYLNAS

In assay [1] the target is B4. The experiment in a line: kinetic binding.
Assay [2] deals with B4. Put plainly: receptor binding assay (RBA).
Assay [3] has as its target T1, human IL-12 p70 (UniProt P29460 23-328; P29459 23-219).
T1 chain 1: B4 chain 1
T1 chain 2: B4 chain 2
The experiment in a line: kinetic binding.

The target of assay [4] is T1, human IL-12 p70. The experiment in a line: receptor binding assay (RBA).
The target in assay [5] is T1, human IL-12 p70. Put plainly: receptor binding assay (RBA).
In assay [6] the target is Y61 L50Y. The experiment in a line: kinetic binding.
Assay [7] concerns the target Y61 L94Y. Put plainly: kinetic binding.
Assay [8] concerns the target 78-34. Put plainly: kinetic binding.

Molecule B1 registered a Kd in assay [1] of 604 pM. This molecule had a concentration for half-maximal inhibition (IC50) in assay [2] of 16 pM.

Turning to B2, the koff in assay [3] stood at 0.00067 s⁻¹. In assay [4], the 50% inhibitory concentration (IC50) came out at 40 pM.

B3: the half-maximal inhibitory concentration (IC50) in assay [5] stood at 50 pM.

For B4, the dissociation constant (Kd) in assay [6] was determined as 138 pM; in assay [7], 341 pM. Moreover, the koff in assay [8] was 0.0164 s⁻¹.
